From PMC9371921, “Strand annealing and motor driven activities of SMARCAL1 and ZRANB3 are stimulated by RAD51 and the paralog complex” (Nucleic Acids Research, 2022)

Tests used:
[1] = target: T1, SMARCAL1 F439 F→A variant (human, UniProt Q9NZC9 1-954, F439 (F→A variant)); test: pull-down; MBP-RAD51 (bait) from bacterial soluble extract bound to amylose resin and washed; purified FLAG-SMARCAL1, FLAG-ZRANB3 or FLAG-BCDX2 (1 μg, prey) in 150 μl IP buffer (25 mM Tris-HCl pH 7.5, 100 mM NaCl, 3 mM EDTA, 0.5 mM DTT, BSA, 10% glycerol), 1 h at 4°C; eluted with maltose; Western blot with anti-MBP and anti-FLAG; conditions: both partners purified
T1 construct: human SMARCAL1 with F439 disrupted; the methods call the variants SMARCAL1 F→A variants; construct as m1; The text says only 'disruption of F439'; also called disruption of F439; source: Sf9, purified similarly as the wild type
T1 sequence (looked up): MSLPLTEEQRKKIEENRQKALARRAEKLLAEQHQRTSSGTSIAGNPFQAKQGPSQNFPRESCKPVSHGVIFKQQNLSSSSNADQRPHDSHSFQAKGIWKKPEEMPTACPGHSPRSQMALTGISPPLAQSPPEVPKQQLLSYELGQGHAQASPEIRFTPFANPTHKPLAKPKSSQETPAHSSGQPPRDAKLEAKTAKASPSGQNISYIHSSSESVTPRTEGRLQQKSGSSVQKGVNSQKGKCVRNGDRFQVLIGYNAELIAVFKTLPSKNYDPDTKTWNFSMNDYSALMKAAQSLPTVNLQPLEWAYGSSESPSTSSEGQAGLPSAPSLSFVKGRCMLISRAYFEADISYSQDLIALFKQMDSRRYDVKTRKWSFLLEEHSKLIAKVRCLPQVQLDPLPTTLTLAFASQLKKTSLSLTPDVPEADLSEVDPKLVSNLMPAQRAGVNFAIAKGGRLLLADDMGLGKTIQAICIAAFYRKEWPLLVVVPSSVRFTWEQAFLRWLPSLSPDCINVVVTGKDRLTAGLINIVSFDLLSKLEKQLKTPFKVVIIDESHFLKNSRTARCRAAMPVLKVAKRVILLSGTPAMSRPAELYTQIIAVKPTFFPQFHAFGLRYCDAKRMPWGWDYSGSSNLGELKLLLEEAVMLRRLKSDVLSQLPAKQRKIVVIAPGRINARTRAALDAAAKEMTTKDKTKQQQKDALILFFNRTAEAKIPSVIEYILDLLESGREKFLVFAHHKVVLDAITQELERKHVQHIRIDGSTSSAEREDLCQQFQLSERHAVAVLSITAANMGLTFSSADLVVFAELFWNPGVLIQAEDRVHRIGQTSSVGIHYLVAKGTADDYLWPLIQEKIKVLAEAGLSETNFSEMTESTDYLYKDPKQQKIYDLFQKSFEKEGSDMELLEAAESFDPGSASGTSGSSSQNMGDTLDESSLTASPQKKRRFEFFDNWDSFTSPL

ZRANB3 F47A = target: T2, ZRANB3 F47A (human, UniProt Q5FWF4 1-1079, F47A); test: pull-down; ZRANB3 F→A variants and RAD51 (Supplementary Figure S4); the methods tell two set-ups (MBP-RAD51 on amylose resin with purified FLAG-ZRANB3; FLAG-ZRANB3 variants from Sf9 soluble extract on anti-FLAG resin with purified RAD51) and the text does not tell which was used for which variant; 100 mM NaCl, 1 h at 4°C; conditions: both partners purified
T2 construct: human ZRANB3 with F47A; construct as m2; also called F47A substitution mutant; source: Sf9, expressed and purified similarly as the wild type
T2 sequence (looked up): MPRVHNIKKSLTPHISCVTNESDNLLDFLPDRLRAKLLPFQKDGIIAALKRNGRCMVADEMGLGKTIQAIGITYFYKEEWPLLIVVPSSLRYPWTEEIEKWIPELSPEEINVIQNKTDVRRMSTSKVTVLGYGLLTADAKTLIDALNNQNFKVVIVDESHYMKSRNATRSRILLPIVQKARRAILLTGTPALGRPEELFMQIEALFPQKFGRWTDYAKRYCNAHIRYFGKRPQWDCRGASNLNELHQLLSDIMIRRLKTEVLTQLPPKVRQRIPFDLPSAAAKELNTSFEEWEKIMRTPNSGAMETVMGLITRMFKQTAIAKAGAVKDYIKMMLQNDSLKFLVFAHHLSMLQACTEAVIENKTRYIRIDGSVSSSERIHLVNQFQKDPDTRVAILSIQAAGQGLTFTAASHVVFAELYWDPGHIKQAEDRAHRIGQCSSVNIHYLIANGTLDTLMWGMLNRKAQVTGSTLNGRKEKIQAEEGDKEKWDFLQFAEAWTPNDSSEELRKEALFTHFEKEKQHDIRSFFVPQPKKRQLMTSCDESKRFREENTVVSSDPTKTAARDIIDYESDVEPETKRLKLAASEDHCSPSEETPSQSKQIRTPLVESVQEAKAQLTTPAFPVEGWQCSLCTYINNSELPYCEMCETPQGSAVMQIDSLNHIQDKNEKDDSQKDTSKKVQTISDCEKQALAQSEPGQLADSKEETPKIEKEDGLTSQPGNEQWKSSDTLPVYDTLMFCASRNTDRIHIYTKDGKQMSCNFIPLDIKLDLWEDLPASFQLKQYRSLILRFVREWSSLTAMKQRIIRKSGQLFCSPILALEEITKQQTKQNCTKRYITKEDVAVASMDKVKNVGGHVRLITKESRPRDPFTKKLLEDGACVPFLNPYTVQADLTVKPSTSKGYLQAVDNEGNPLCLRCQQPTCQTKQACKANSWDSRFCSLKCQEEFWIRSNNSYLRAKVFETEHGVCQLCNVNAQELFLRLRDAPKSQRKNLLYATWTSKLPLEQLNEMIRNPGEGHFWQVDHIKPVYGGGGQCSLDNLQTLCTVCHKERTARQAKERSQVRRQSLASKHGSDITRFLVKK

B1: MBP-RAD51 (natural protein, human, UniProt Q06609 1-339, looked up)
chain: MAMQMQLEANADTSVEEESFGPQPISRLEQCGINANDVKKLEEAGFHTVEAVAYAPKKELINIKGISEAKADKILAEAAKLVPMGFTTATEFHQRRSEIIQITTGSKELDKLLQGGIETGSITEMFGEFRTGKTQICHTLAVTCQLPIDRGGGEGKAMYIDTEGTFRPERLLAVAERYGLSGSDVLDNVAYARAFNTDHQTQLLYQASAMMVESRYALLIVDSATALYRTDYSGRGELSARQMHLARFLRMLLRLADEFGVAVVITNQVVAQVDGAAMFAADPKKPIGGNIIAHASTTRLYLRKGRGETRICKIYDSPCLPEAEAMFAINADGVGDAKD
notes: In the pull-downs the MBP tag was kept; the RAD51 of the DNA annealing assays was the same construct with the MBP cut off by PreScission protease and purified on HiTrap Q; not shown: MBP, N-terminal, kept
binding result [1]: binds | binding result (ZRANB3 F47A): binds
